In IntAct's records for PubMed 31515488:

B1: Guanine nucleotide exchange factor for Rab-3A (Homo sapiens), Q8TBN0 (parent)
chain: MWSGPPQPDQGLPPPLAAVPVPWKSTDPCQGHRESPGALVETSAGEEAQGQEGPAAAQLDVLRLRSSSMEIREKGSEFLKEELHRAQKELKLKDEECERLSKVREQLEQELEELTASLFEEAHKMVREANMKQAASEKQLKEARGKIDMLQAEVTALKTLVITSTPASPNRELHPQLLSPTKAGPRKGHSRHKSTSSTLCPAVCPAAGHTLTPDREGKEVDTILFAEFQAWRESPTLDKTCPFLERVYREDVGPCLDFTMQELSVLVRAAVEDNTLTIEPVASQTLPTVKVAEVDCSSTNTCALSGLTRTCRHRIRLGDSKSHYYISPSSRARITAVCNFFTYIRYIQQGLVRQDAEPMFWEIMRLRKEMSLAKLGFFPQEA
partner: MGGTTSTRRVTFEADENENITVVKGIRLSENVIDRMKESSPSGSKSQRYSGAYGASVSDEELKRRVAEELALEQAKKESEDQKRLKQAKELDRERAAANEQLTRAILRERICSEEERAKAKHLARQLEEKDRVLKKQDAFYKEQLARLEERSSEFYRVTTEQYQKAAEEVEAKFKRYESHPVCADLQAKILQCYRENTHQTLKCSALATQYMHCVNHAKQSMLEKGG
B2: Max-like protein X (Homo sapiens), Q9UH92 (parent)
chain: MTEPGASPEDPWVKASPVGAHAGEGRAGRARARRGAGRRGASLLSPKSPTLSVPRGCREDSSHPACAKVEYAYSDNSLDPGLFVESTRKGSVVSRANSIGSTSASSVPNTDDEDSDYHQEAYKESYKDRRRRAHTQAEQKRRDAIKRGYDDLQTIVPTCQQQDFSIGSQKLSKAIVLQKTIDYIQFLHKEKKKQEEEVSTLRKDVTALKIMKVNYEQIVKAHQDNPHEGEDQVSDQVKFNVFQGIMDSLFQSFNASISVASFQELSACVFSWIEEHCKPQTLREIVIGVLHQLKNQLY
partner: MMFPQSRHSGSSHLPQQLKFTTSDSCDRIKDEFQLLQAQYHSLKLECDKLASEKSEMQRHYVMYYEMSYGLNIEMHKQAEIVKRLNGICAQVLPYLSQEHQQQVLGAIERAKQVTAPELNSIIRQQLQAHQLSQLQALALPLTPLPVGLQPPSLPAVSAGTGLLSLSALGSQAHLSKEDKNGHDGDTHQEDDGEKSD
B3: Amyloid beta A4 precursor protein-binding family B member 1-interacting protein (Homo sapiens), Q7Z5R6-2 (parent)
chain: MGESSEDIDQMFSTLLGEMDLLTQSLGVDTLPPPDPNPPRAEFNYSVGFKDLNESLNALEDQDLDALMADLVADISEAEQRTIQAQKESLQNQHHSASLQASIFSGAASLGYGTNVAATGISQYEDDLPPPPADPVLDLPLPPPPPEPLSQVSMWDQRWQDHQPLLPITDVP
B4: Protein boule-like (Homo sapiens), Q8N9W6 (parent)
chain: MQTDSLSPSPNPVSPVPLNNPTSAPRYGTVIPNRIFVGGIDFKTNESDLRKFFSQYGSVKEVKIVNDRAGVSKGYGFVTFETQEDAQKILQEAEKLNYKDKKLNIGPAIRKQQVGIPRSSIMPAAGTMYLTTSTGYPYTYHNGVAYFHTPEVTSVPPPWPSRSVCSSPVMVAQPIYQQPAYHYQATTQYLPGQWQWSVPQPSASSAPFLYLQPSEVIYQPVEIAQDGGCVPPPLSLMETSVPEPYSDHGVQATYHQVYAPSAITMPAPVMQPEPIKTVWSIHY
partner: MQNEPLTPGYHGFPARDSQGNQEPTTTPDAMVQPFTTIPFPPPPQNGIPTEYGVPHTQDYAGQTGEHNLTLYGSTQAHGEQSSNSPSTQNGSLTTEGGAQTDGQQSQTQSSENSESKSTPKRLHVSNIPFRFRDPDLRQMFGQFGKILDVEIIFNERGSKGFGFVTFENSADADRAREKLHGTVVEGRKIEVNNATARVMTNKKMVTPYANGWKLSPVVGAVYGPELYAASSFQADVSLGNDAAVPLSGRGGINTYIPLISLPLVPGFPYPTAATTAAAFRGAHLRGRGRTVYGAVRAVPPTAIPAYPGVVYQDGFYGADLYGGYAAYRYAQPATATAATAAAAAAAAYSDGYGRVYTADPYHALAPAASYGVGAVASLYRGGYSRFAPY
B5: Protein ZNRD2 (Homo sapiens), O60232 (parent)
chain: MALNGAEVDDFSWEPPTEAETKVLQARRERQDRISRLMGDYLLRGYRMLGETCADCGTILLQDKQRKIYCVACQELDSDVDKDNPALNAQAALSQAREHQLASASELPLGSRPAPQPPVPRPEHCEGAAAGLKAAQGPPAPAVPPNTDVMACTQTALLQKLTWASAELGSSTSLETSIQLCGLIRACAEALRSLQQLQH
partner: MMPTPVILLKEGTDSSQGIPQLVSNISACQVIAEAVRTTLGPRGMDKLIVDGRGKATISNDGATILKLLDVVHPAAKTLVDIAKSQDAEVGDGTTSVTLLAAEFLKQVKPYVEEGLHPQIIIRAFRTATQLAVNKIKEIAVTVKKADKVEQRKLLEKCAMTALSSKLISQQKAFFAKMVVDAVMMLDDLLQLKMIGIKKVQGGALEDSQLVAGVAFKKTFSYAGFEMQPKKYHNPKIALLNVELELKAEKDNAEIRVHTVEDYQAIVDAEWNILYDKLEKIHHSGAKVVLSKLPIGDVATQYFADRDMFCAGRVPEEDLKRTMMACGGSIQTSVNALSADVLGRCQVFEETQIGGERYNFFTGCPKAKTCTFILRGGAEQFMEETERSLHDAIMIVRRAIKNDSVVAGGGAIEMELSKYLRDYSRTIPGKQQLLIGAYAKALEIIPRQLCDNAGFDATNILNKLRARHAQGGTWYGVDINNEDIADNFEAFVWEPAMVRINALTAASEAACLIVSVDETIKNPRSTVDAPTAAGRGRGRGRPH
B6: Cyclin-dependent kinase 4 inhibitor D (Homo sapiens), P55273 (parent)
chain: MLLEEVRAGDRLSGAAARGDVQEVRRLLHRELVHPDALNRFGKTALQVMMFGSTAIALELLKQGASPNVQDTSGTSPVHDAARTGFLDTLKVLVEHGADVNVPDGTGALPIHLAVQEGHTAVVSFLAAESDLHRRDARGLTPLELALQRGAQDLVDILQGHMVAPL
partner: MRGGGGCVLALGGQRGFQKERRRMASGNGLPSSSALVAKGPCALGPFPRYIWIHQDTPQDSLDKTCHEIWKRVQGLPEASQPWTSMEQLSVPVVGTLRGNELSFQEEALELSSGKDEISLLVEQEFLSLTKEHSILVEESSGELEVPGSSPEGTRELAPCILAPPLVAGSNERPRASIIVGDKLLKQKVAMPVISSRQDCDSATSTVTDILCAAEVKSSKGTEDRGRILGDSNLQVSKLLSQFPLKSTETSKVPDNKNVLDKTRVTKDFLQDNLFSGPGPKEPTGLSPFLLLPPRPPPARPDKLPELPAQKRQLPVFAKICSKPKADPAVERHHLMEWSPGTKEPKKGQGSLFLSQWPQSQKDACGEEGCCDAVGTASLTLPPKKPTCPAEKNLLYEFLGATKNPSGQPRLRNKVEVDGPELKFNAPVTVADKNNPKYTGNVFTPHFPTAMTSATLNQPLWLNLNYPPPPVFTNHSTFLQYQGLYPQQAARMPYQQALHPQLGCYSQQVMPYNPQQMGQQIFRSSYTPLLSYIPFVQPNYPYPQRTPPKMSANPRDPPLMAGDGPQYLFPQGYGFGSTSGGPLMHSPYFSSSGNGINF
B7: Isoform 1 of Equilibrative nucleoside transporter 1 (Homo sapiens), Q99808-1 (parent)
chain: MTTSHQPQDRYKAVWLIFFMLGLGTLLPWNFFMTATQYFTNRLDMSQNVSLVTAELSKDAQASAAPAAPLPERNSLSAIFNNVMTLCAMLPLLLFTYLNSFLHQRIPQSVRILGSLVAILLVFLITAILVKVQLDALPFFVITMIKIVLINSFGAILQGSLFGLAGLLPASYTAPIMSGQGLAGFFASVAMICAIASGSELSESAFGYFITACAVIILTIICYLGLPRLEFYRYYQQLKLEGPGEQETKLDLISKGEEPRAGKEESGVSVSNSQPTNESHSIKAILKNISVLAFSVCFIFTITIGMFPAVTVEVKSSIAGSSTWERYFIPVSCFLTFNIFDWLGRSLTAVFMWPGKDSRWLPSLVLARLVFVPLLLLCNIKPRRYLTVVFEHDAWFIFFMAAFAFSNGYLASLCMCFGPKKVKPAEAETAGAIMAFFLCLGLALGAVFSFLFRAIV
partner: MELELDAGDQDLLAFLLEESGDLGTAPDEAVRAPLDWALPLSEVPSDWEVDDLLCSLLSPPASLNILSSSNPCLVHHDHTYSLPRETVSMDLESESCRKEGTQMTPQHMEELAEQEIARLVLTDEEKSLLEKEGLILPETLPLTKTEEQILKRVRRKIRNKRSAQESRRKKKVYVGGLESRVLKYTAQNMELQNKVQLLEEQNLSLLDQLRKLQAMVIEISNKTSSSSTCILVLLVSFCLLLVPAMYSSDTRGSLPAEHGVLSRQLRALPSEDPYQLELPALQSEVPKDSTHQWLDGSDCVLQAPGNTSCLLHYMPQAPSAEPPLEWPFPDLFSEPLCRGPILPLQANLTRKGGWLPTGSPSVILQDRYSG
B8: Coiled-coil domain-containing protein 172 (Homo sapiens), P0C7W6 (parent)
chain: MSLESLFQHIIFTEHQAEESRRLMREVRSEITRCREKIKKATEELNEEKIKLESKVQQFFEKSFFLQLLKAHENALEKQYSEITNHRNMLLQTFEAIKKQMIEEEDKFIKEITDFNNDYEITKKRELLMKENVKIEISDLENQANMLKSEMKSMEHDSSQLNELQKQKSELIQELFTLQRKLKVFEDEENESICTTKYLEAEKIKISEKPQNDTECLRLKKELELYKEDDMESVYEALQTEIEFLELTLAQKDLQESK
partner: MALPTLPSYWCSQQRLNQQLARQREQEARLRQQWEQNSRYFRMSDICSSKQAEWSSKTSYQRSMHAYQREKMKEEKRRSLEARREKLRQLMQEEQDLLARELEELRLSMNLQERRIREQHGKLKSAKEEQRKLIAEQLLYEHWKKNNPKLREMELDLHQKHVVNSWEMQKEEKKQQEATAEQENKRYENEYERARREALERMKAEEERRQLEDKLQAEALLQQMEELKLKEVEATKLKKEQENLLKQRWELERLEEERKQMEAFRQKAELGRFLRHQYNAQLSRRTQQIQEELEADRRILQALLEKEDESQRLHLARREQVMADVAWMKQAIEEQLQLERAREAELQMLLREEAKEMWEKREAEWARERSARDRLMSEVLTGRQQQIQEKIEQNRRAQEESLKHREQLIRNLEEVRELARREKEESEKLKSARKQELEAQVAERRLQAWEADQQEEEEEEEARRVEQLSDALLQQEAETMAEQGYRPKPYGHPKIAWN
B9: Flavin-containing monooxygenase 3 (Homo sapiens), P31513 (parent)
chain: MGKKVAIIGAGVSGLASIRSCLEEGLEPTCFEKSNDIGGLWKFSDHAEEGRASIYKSVFSNSSKEMMCFPDFPFPDDFPNFMHNSKIQEYIIAFAKEKNLLKYIQFKTFVSSVNKHPDFATTGQWDVTTERDGKKESAVFDAVMVCSGHHVYPNLPKESFPGLNHFKGKCFHSRDYKEPGVFNGKRVLVVGLGNSGCDIATELSRTAEQVMISSRSGSWVMSRVWDNGYPWDMLLVTRFGTFLKNNLPTAISDWLYVKQMNARFKHENYGLMPLNGVLRKEPVFNDELPASILCGIVSVKPNVKEFTETSAIFEDGTIFEGIDCVIFATGYSFAYPFLDESIIKSRNNEIILFKGVFPPLLEKSTIAVIGFVQSLGAAIPTVDLQSRWAAQVIKGTCTLPSMEDMMNDINEKMEKKRKWFGKSETIQTDYIVYMDELSSFIGAKPNIPWLFLTDPKLAMEVYFGPCSPYQFRLVGPGQWPGARNAILTQWDRSLKPMQTRVVGRLQKPCFFFHWLKLFAIPILLIAVFLVLT
partner: B7 partner

Variants of: B1
Settings: with mic19_human CHCHD3, Q9NX63

Variant | effect of a mutation on the interaction
Q49R | with no effect

Variants of: B2
Settings: with tle5_human TLE5, Q08117

Variant | effect of a mutation on the interaction
Q223R | with no effect

Variants of: B3
Settings: with dpy30_human DPY30, Q9C005
Sequence of dpy30_human DPY30, Q9C005 (Q9C005 whole entry): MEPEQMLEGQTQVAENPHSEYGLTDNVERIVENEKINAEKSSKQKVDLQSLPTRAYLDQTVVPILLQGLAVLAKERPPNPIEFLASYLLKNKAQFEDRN

Variant | effect of a mutation on the interaction
D134N | with no effect

Variants of: B4
Settings: with rfox2_human RBFOX2, O43251

Variant | effect of a mutation on the interaction
S9Y | with no effect
M270I | with no effect
V78I | with no effect

Variants of: B5
Settings: with tcph_human CCT7, Q99832

Variant | effect of a mutation on the interaction
T21M | with no effect

Variants of: B6
Settings: with ca094_human C1orf94, Q6P1W5

Variant | effect of a mutation on the interaction
P142S | with no effect

Variants of: B7
Settings: with creb3_human CREB3, O43889

Variant | effect of a mutation on the interaction
A293T | with no effect

Variants of: B8
Settings: with tchp_human TCHP

Variant | effect of a mutation on the interaction
I10V | with no effect

Variants of: B9
Settings: with creb3_human CREB3, O43889

Variant | effect of a mutation on the interaction
G180V | with no effect
E158K | with no effect
